Measurements: patent publication CN114014929A (JIANGSU QYUNS THERAPEUTICS CO LTD, dated 2022)

How the values were obtained:
[1] = biological target: T1, 人白介素-33 (human interleukin-33, recombinant) (human, UniProt O95760 112-270); test: cell-based or functional assay
T1 sequence: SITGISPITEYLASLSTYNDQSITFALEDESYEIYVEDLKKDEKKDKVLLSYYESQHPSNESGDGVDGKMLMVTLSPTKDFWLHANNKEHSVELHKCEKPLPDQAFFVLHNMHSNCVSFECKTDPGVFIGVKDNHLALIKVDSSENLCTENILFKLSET

[2] = biological target: T2, 天然人白介素-33 (natural human interleukin-33 from HFL-1 cell lysate) (human, UniProt O95760 1-270, limits assumed); test: cell-based or functional assay
T2 sequence (looked up): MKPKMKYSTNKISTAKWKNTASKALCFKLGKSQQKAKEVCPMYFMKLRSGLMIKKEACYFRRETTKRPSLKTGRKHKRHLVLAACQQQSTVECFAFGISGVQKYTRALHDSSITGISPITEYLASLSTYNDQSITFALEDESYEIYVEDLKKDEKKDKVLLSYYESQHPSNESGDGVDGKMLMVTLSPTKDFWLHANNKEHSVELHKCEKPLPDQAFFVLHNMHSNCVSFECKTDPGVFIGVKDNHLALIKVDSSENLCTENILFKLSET

B1: QX007N(HZD78-70) (antibody, V domains shown)
VH: EVQLVESGGGLVQPGGSLRLSCAASGFSLSSYHMIWVRQAPGKGLEWVGVIYPNSNIYYATWAKGRFTISRDNSKNTLYLQMNSLRAEDTAVYYCARTIYVHVYSALSIWGQGTLVTVSS
VL: AFQMTQSPSSVSASVGDRVTITCQASESVLNEVSWYQQKPGKAPKLLIYFASKLASGVPSRFSGSGSGTDFTLTISSLQPEDFATYYCQQDWSMDNIDNAFGGGTKVEIKR
中和人白介素-33诱导人全血释放IFN-γ, IC50 [1]: 16 ng/mL | 中和人白介素-33诱导的KU812细胞释放IL-5 (IL-5 ELISA), IC50 [1]: 5.87 ng/mL | 中和重组人白介素-33诱导HEK Blue IL-33细胞中NF-κB/AP-1信号转导 (SEAP, OD630nm), IC50 [1]: 6.67 ng/mL | 中和天然人白介素-33诱导HEK Blue IL-33细胞中NF-κB/AP-1信号转导 (SEAP, OD630nm), IC50 [2]: 3.91 ng/mL
